This sample holds only a part of the variants without activity.
B1: TPR 5TU (parent)
chain: GGAUCUUCUCGAUCUAACAAAAAAGACAAAUCUGCCACAAAGCUUGAGAGCAUCUUCGGAUGCAGAGGCGGCAGCCUUCGGUGGCGCGAUAGCGCCAACGUUCUCAACUAUGACACGCAAAACGCGUGCUCCGUUGAAUGGAGUUUAUCAUG

Variants of: B1
Assay: polymerase ribozyme fitness, log enrichment relative to wild type (log ratio); higher = more active; in vitro selection for triplet polymerase activity
Summary of the method: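 For each subunit of a heterodimeric triplet polymerase ribozyme, a mutant library was built by PCR and transcribed, then taken through a single in vitro selection round in triplicate. Selection involved annealing to a biotinylated primer, the partner subunit and triplets, incubation frozen at −7 °C, gel excision of extended constructs, capture on streptavidin beads and RT-PCR. Genotypes were retained after Illumina sequencing of inputs and outputs only with ≥10 input reads and ≥1 read in each output. Fitness is defined as the logarithm of a genotype's enrichment relative to wild-type enrichment, using inverse-variance-weighted averages across replicates, with the logarithm taken to base 2.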

| Variant | polymerase ribozyme fitness (log ratio) |
| --- | --- |
| C27G G143C A150G | ≤ -4.2 |
| C57U C85A C96G C116U G143C U148A | ≤ -4.2 |
| A107G C125A | -3.63 |
| C43U U45G C131A G136U | ≤ -4.2 |
| A41C G50A A89U A113U A115G U146A | -4.05 |
| A47G U55A A89C C95U U146A | -1.95 |
| C5U C75U C85U | 1.35 |
| G25A U44G C85U A106C | ≤ -4.2 |
| A41C A47C G59A A60G C85A U127G A137G | ≤ -4.2 |
| A19U A142C | -1.11 |
| A17C U33C G42U U44A U56G | ≤ -4.2 |
| C14G U55A | -2.86 |
| C18A A20U G25C G83A C87U U145A C149A | ≤ -4.2 |
| A19C A52C C85U C96U C108G G140C | ≤ -4.2 |
| C54A C57G A60U C87U C95U G136A | -4.11 |
| C35U C54A G58C | -1.17 |
| C63G C87U C129G U139C G143U | ≤ -4.2 |
| A47C C85A C93U | ≤ -4.2 |
| A29U A40G U53A C95G | ≤ -4.2 |
| C69A G81A | -1.51 |
| A20C G50U C95U A106U A137C | ≤ -4.2 |

| Variant | polymerase ribozyme fitness (log ratio) |
| --- | --- |
| A21U U44G C131U G136C G141U U151A | ≤ -4.2 |
| U4G C38U G86C C105G A138C | ≤ -4.2 |
| A17G C76A A119U | -0.0837 |
| C38U A60U | -1.14 |
| C14G A17C | -2.89 |
| A20U A73G C85A C93A G141C | ≤ -4.2 |
| C18G U61C C85G C95U | ≤ -4.2 |
| A47C G48U G50A U55A G94A | ≤ -4.2 |
| G46A G50C U55A U56A C87U G88U C125A G136A | ≤ -4.2 |
| A19U C57G A121G A150G | -1.93 |
| U56A C85A U101G G152C | -4.1 |
| C8A G50U C76U G83A C116G C131A U145C | ≤ -4.2 |
| A3G A12G A52G G84A C116G | -1.71 |
| C36G A66U G68C | ≤ -4.2 |
| A52G G58A A66U U77G G94A C99G A107G | ≤ -4.2 |
| C38A G70C G126C | -3.53 |
| U13A A17U U45C G50A G83C C87U U104G G140A | ≤ -4.2 |
| C36U C85A | -2.75 |
| C18U | -0.399 |
| A30C C32U C36U G70U U139A A142C | ≤ -4.2 |
| C69U C85U U148C | -2.71 |

| Variant | polymerase ribozyme fitness (log ratio) |
| --- | --- |
| A3G G94U U104C C129U U134A | ≤ -4.2 |
| A23C C72U C87A C96U C105U | ≤ -4.2 |
| C72A C103G C118G U148G | ≤ -4.2 |
| G84A U139A | -4.11 |
| C51A C76G G88C C103A C125A G140A | ≤ -4.2 |
| A30C C69G C76A G94A G140A | ≤ -4.2 |
| C96A A122U | -0.0649 |
| A41G G92A C99U G126C C149A | ≤ -4.2 |
| A30C U56A C57G C87U U102G G143C | ≤ -4.2 |
| C10U A37U G50A A73U A122G | ≤ -4.2 |
| A19U A26C A40U C96A A121C | -2.54 |
| G42U G68C G94U | ≤ -4.2 |
| A41U | -0.621 |
| U56A G59U C69A C87U U101C G140U | -3.01 |
| C27G U61A A66G C76A C85A G141A | ≤ -4.2 |
| G58A G81A C123U U146G A147G | -0.0286 |
| A17U A28G G34C A64C C79G U90G | ≤ -4.2 |
| C93G U146G C149U | -3.51 |
| C32U G81C C114G | ≤ -4.2 |
| G84U A89U A98U G126U | -0.825 |
| A17U A40U A113C A115C C131U | ≤ -4.2 |

| Variant | polymerase ribozyme fitness (log ratio) |
| --- | --- |
| A12G C36U A37C G59C U102A C118G A120C U146A | ≤ -4.2 |
| A26U G59U C69G A142G | -2.52 |
| G86C U135A | -3.03 |
| A21U G84A | 0.266 |
| A22G G84U G88U A89U | ≤ -4.2 |
| A37G U56A G124C U134A U144A | ≤ -4.2 |
| C38U G83U | -0.752 |
| G11U G74A C85A U90C G141A U148C | ≤ -4.2 |
| A60U U61A G84U G128A G140C U148C | ≤ -4.2 |
| A20G A91G | -2.54 |
| C14U C85A | -2.54 |
| U53A G92U | -1.74 |
| U53A C105A | -2.83 |
| C57U A64G | -3.91 |
| C54U U56G C57U C76U C95G | -2.9 |
| G50U C54U G81C C85A G117A | -0.79 |
| U4G G34A C96G A97U C123A C132A | ≤ -4.2 |
| A39U U127C | -4 |
